Data published in the DeepSol protein solubility set.

Test: soluble on expression in E. coli; label from the status in PepcDB or PDB records

Row | Sequence | soluble on expression in E. coli
1 | MVKVTAACIIIGDEVLNGKVVDTNSTFFAKYCFDHGIQLKEIATIGDDETQIVDTVRRLVKNYDFIISTGGIGPTHDDITYECMAKSFNLPCELDEECKERMRHKSDPEARLDADALKAHYQMATMPKGTNVKNYYVCDDLWVPICSISHKMYILPGIPQLFARMLKAFTPTLKKIYNLDKDPREYVRYFVRTHLTESQISKELKLIQDESTKVSEAIKIGSYPHFGMGFNTVSILGEKKDDSYLKSIVNRVVNNLEGEVISSELENKFSNQES | not soluble
2 | MDVIREYLMFNELSALSSSPESVRSRFSSIYGTNPDGIALNNETYFNAVKPPITAQYGYYCYKNVGTVQYVNRPTDINPNVILAQDTLTNNTNEPFTTTITITGSFTNTSTVTSSTTTGFKFTSKLSIKKVFEIGGEVSFSTTIGTSETTTETITVSKSVTVTVPAQSRRTIQLTAKIAKESADFSAPITVDGYFGANFPKRVGPGGHYFWFNPARDVLNTTSGTLRGTVTNVSSFDFQTIVQPARSLLDEQ | soluble
3 | NEIKKILIMPTWRDWLNSTYAFDNSDYMKHYLSLINSPKLQALINEYDIEINFYPHYRSQMFFKSFLTDNKSDINYIELGDKTVQELLVEHDLLITDYSSVSFDFSYMKKPVIFYHFDVKKFFRKGILRSIKDTFIGDIAHTEKELISLIEDNIKNPKNMEYQNLSSIFDYTDHHNNQRVYHSILDLIQDNT | not soluble
4 | SDALSWGHGPRLFEVFLEPTCPFSVKAFFKLDDLLAQAGEDNVTVRIRLQSQPWHMFSGVIVRCILAAATLEGGKESAKAVMTAVASHREEFEFEHHAGGPNLDATPNDIIARIERYSGLALAEAFANPELEHAVKWHTKYARQNGIHVSPTFMINGLVQPGMSSGDPVSKWVSDIG | not soluble
5 | MGRRGMWYPLAAMKGVLEALHQGDYDTAIDLLTRKALFGREREAKEAWLLLAEVYALYGEEGLEKAHHALEEAYALGGLEYDPLYRSLLAELLALEGRPEREVLPLFLPSRDPRVRYHQAQALFYLGRLEEALEALEAGLPPHLAWRAEGLKGRILERLGRHGEAALAYERGAELALGLERYWLLLDAAAMWLEAGEGERALLALKEAEAAVGEEDPEDAATRHYLLARAHLLLGNPGLALEEIRKALALEEESGHKAYGTPLVEGQALLQLGRYEEAMASFREALARADAGERPHVLHEMGVAALDHGAYPEAEEHLRALVREEGYPYLAQAYADLAEALYRQGRYQEAEAAAREAVARGAVAAGELVLGHVAYDLLHLEEALEHYRKAAESAEEGSREWVGAQEMVVDTLAQLGYRFPEEMVRRGQAVLPYLHPADEWHAALTAYVERAQALLREGKRLN | soluble
6 | SWKRNKFRLTYVAEAPDLTQGLSNVHKKRVSAARLLSRQNLQSPKSSRSTIFVRLHTNGNQELQYQPGDHLGVFPGNHEDLVNALIERLEDAPPANHVVKVEMLEERNTALGVISNWKDESRLPPCTIFQAFKYYLDITTPPTPLQLQQFASLATNEKEKQRLLVLSKGLQEYEEWKWGKNPTMVEVLEEFPSIQMPATLLLTQLSLLQPRYYSISSSPDMYPDEVHLTVAIVSYHTRDGEGPVHHGVCSSWLNRIQADDVVPCFVRGAPSFHLPRNPQVPCILVGPGTGIAPFRSFWQQRQFDIQHKGMNPCPMVLVFGCRQSKIDHIYREETLQAKNKGVFRELYTAYSREPDRPKKYVQDVLQEQLAESVYRALKEQGGHIYVCGDVTMAADVLKAIQRIMTQQGKLSEEDAGVFISRLRDDNRYHEDIFGV | soluble
7 | MGSDKIHHHHHHMSDSPLIAFPRGCITGTFIRRVKRFSVEMETAGAGAPERVWIHSNNSGSMLGLLRAGAPVLASPAANPARKLKWTQELAGLDGMWVGVNTQTPNRLLEAAFHAGRLPWAAGYTMFRREARCGASRLDARMDAPQDSGLPPLWVECKNVTMVEDDVAAFPDAATERGQKHLREMMEIVRQGQRAAMFYLVQRADGHCFGPADYVDPVYAGLFYEAAAAGVEMYPHRALVSEHGIDLGPLLPVVPPPGV | not soluble
8 | SKNAVANSSSSEPAVSQTENASSSLEHENKARELASDAQANKTQELAPDSRQESLAPQEPFIDINRMLDSLSGDEGAVRMLLEVFIQDHAEDGSKLHKLLNEDIDNAQRAAHSLKGVSGSLGAMPLHYISGEIELLIKQGKEVPDNKLCQLRDVLQQTTLFAEKVLNSEKIREVLTD | not soluble
9 | MGSDKIHHHHHHMNTTQELHVIFGTGPLAQAVMRELLARNKRVRMINRSGKADIPSSVEIIASDAYNSENTRAVTTGATVVYQCAQPAYTQWPELFPSLQASIVEGVAANGAKLVVGDNLYMYGPVNGVLREDMPNAATTRKGRVRGQMTEALLDAHRRGIVRVAIGRASDFYGPLVLDSVMGDRIFPSVLTGKPASAIGEIDLPHTYTFIDDFGKALVVLGEEDKALGQIWHVPNAETITTRQFITIAFEEAGYPPKISKMGKFMMRLGGIFIPEARETVEMMYEFDEPFVVNHDKYVQAFGNHATPLREAIRHTLKWYSEHLKTLKT | not soluble
10 | MGSDKIHHHHHHMRVLVINSGSSSIKYQLIEMEGEKVLCKGIAERIGIEGSRLVHRVGDEKHVIERELPDHEEALKLILNTLVDEKLGVIKDLKEIDAVGHRVVHGGERFKESVLVDEEVLKAIEEVSPLAPLHNPANLMGIKAAMKLLPGVPNVAVFDTAFHQTIPQKAYLYAIPYEYYEKYKIRRYGFHGTSHRYVSKRAAEILGKKLEELKIITCHIGNGASVAAVKYGKCVDTSMGFTPLEGLVMGTRSGDLDPAIPFFIMEKEGISPQEMYDILNKKSGVYGLSKGFSSDMRDIEEAALKGDEWCKLVLEIYDYRIAKYIGAYAAAMNGVDAIVFTAGVGENSPITREDVCSYLEFLGVKLDKQKNEETIRGKEGIISTPDSRVKVLVVPTNEELMIARDTKEIVEKIGR | not soluble
11 | MVPSTFSRLKAARCLPVVLAALIFVGCGTHTPDQSTAYMQGTAQADSAFYLQQMQQSSDDTRINWQLLAIRALVKEGKTGQAVELFNQLPQELNDSQRREKTLLAVEIKLAQKDFAGAQNLLAKITPADLEQNQQARYWQAKIDASQGRPSIDLLRALIAQEPLLGAKEKQQNIDATWQALSSMTQEQANTLVINADENILQGWLDLQRVWFDNRNDPDMMKAGIADWQKRYPNNPGAKMLPTQLVNVKAFKPASTNKIALLLPLNGQAAVFGRTIQQGFEAAKNIGTQPVAAQVAAAPAADVAEQPQPQTADGVASPAQASVSDLTGDQPAAQPVPVSAPATSTAAVSAPANPSAELKIYDTSSQPLSQILSQVQQDGASIVVGPLLKNNVEELLKSNTPLNVLALNQPENIENRVNICYFALSPEDEARDAARHIRDQGKQAPLVLIPRSSLGDRVANAFAQEWQKLGGGTVLQQKFGSTSELRAGVNGGSGIALTGTPITPRATTDSGMTTNNPTLQTTPTDDQFTNNGGRVDAVYIVATPGEIAFIKPMIAMRNGSQSGATLYASSRSAQGTAGPDFRLEMEGLQYSEIPMLAGGNLPLMQQALSAVNNDYSLARMYAMGVDAWSLANHFSQMRQVQGFEINGNTGSLTANPDCVINRKLSWLQYQQGQVVPAS | soluble
12 | TIVKSEIIRKLMDAKKFLLDGYIDEGVKIVLEITKSSTKSEYNWFICNLLESIDCRYMFQVLDKIGSYFDLDKCQNLKSVVECGVINNTLNEHVNKALDILVIQGKRDKLEEIGREILKNNEVSASILVAIANALRRVGDERDATTLLIEACKKGEKEACNAVNTLTVRSVM | soluble
13 | MAQFTEEEKTIRRIEKRFNKGMVQYGLIEEGDKVLVGLSGGKDSLALVELLGKRSHIFKPRFSVVAVHVVMKNIPYQSDWDYLREHAEKNGVPLVVYETSFDPSTDTRKSPCFLCSWNRRKALFTVAKEQGCNKIALGHHMDDILETLLMNITYQGAFSTMPPRLVMNKFDMTIIRPMCLVHEADLLELAQIRGYRKQVKNCPYESQSSRSDMKGILRQLEKMNPEARYSLWGSMTNVQEELLPKEVEF | not soluble
14 | VNYRTPAEIMSVANELLTQINPDIAPAMAIRESGREVVNLPLDADLSAVMDSLREEDSQRTIAVISSRRHHESDFYLVDDIKGLEFDHVIVVDPAGIVEESPQGLQDLYVAVTRATQSLTILGE | not soluble
15 | MGSDKIHHHHHHNKIPTTMAFRTVTDVDNAVNGLYDLMSGSGYYGAAMFAYGDMKGDDMQSSEESGVCNTCYMFNHRPNSLNAGSLWGRPFYILREAWNILNAIAEGKIESGDEKKLNALKGETMAVIALCQFDLTRCFGYPYTKDKGASLGAPLIDHLVGTYENPPRSTVAQAYDFIIETLEEAVTLMSEEKNNGRMNKYAARALLARIYLYHDDNRKAFDLADQLIKDADTSGSYALYPHEKYVAAWSVEAKFGSESFFEIANSVDDTPGRDSWGYLLNWYGYQKGFVTQKYAEQMLADPGDVRGHLLEENKYAGKTVWWLYKLRGTDLKTAPLECNNVVLRLSEVYLIAAEAGCKLGGDAAVQGLGYLNEIVKRGNPDNEVTMADYTLDRVLDERSKELVGEGHRFFDLLRNGKTIVRKGGYHLPSVDEEVDWDFYKCVLPIPEDQFIFSPEMEQNPGYPKN | not soluble
16 | MGSDKIHHHHHHMRQESLFNPDKSSSSPLAYRVRPVTLADFKGQEHLLGPGKLLRQLIAEDQLPSLIFWGPPGVGKTTLAEIIAQQTQSHFITFSAVTSGIKEIRQIMDEAEANRDFGEKTIVFIDEIHRFNKAQQDAFLPYVERGSITLIGATTENPSFEINAALLSRCKVLVLKALTPDALEAVLQGALQNPKGFPDLEITMQPDTLRLIAEFANGDARMALNTLEMAVLNGDRDGKHVTITTAGLSQLINTKSLRYDKHGEEHYNIISALHKSMRNSDVDAAIYWLMRMLAGGEDPLYIARRLIRFASEDIGLADRQALPLTVAVFQACQLIGMPECDVNLTEAVTYLALAPKSNALYAAKSAAQADIKATGNLPVPLQIRNAPTKLMKDLGYGSDYQYAHDTAAKLTTMTTMPPELKQHRYYEPTSQGQEKAWQQRLAAIRSGTSNIRKPNRQMMRHKDCNLMRIH | not soluble
17 | MVVNKRLILILLFILNTAKSDELSWKGNDFTLYARQMPLAEVLHLLSENYDTAITISPLITATFSGKIPPGPPVDILNNLAAQYDLLTWFDGSMLYVYPASLLKHQVITFNILSTGRFIHYLRSQNILSSPGCEVKEITGTKAVEVSGVPSCLTRISQLASVLDNALIKRKDSAVSVSIYTLKYATAMDTQYQYRDQSVVVPGVVSVLREMSKTSVPTSSTNNGSPATQALPMFAADPRQNAVIVRDYAANMAGYRKLITELDQRQQMIEISVKIIDVNAGDINQLGIDWGTAVSLGGKKIAFNTGLNDGGASGFSTVISDTSNFMVRLNALEKSSQAYVLSQPSVVTLNNIQAVLDKNITFYTKLQGEKVAKLESITTGSLLRVTPRLLNDNGTQKIMLNLNIQDGQQSDTQSETDPLPEVQNSEIASQATLLAGQSLLLGGFKQGKQIHSQNKIPLLGDIPVVGHLFRNDTTQVHSVIRLFLIKASVVNNGISHGLEHHHHHH | soluble
18 | MLIEMWSPVFKKHGEIREPICFHHGLNVIMGMDLADNSIGKSSSLLAIDFIFGGNSYLKSIAVKKLGDHPIYFCFQFEKKFYFSRDTANPDIILVCDKSYSPTGETMDLGIFLNKLKKRYHLDSPELSFRLAMSGFFRIAGKSNQNTDFPLQVYSSQKSSESITTLIQLFNLYDNIARYKERLKDKSDQLTTFRNARRYAFISNLVGGKKQFEANVSEIKRLEYDLAHLQDTHQDKIDSDDI | not soluble
19 | MKKIMTIFGTRPEAIKMAPLVKALEQEKMLEPIVVVTAQHREMLDSVLSTFEIKPKYDLNIMKSGQTLSEITSKSITQLEQVIQLEKPDMVLVHGDTMTTFAGGLAAFYNQVPIGHVEAGLRSYDKYSPFPEEVNRQLVGVLADLHFAPTKNAASHLLSEGKYSESVVVTGNTAIDAMKYTVDDNYKSNIMDKYHDKKFILMTAHRRENIGKPMENIFKAVRRLIDEYTDLALVYPMHKNPKVREVAQKILGSHDRIELIEPLDVVDFHNFAKKSYFILTDSGGIQEEAPSFNKPVLVLRSVTERPEGVEAGTLKVIGTNKQNVYQAAKELIDDERLYHQMSEASNPYGDGFASERIVNHIKYYLNLITEKPSDF | not soluble
